Publication PMC4357725 (Nucleic Acids Research, 2015)

Biological target: T1, ϕ29 DNA polymerase, wild type (bacteriophage ϕ29, UniProt P03680 1-575)
T1 construct: DNA polymerase of bacteriophage ϕ29, wild type; 66 kDa; also called viral DNA polymerase
T1 sequence (looked up): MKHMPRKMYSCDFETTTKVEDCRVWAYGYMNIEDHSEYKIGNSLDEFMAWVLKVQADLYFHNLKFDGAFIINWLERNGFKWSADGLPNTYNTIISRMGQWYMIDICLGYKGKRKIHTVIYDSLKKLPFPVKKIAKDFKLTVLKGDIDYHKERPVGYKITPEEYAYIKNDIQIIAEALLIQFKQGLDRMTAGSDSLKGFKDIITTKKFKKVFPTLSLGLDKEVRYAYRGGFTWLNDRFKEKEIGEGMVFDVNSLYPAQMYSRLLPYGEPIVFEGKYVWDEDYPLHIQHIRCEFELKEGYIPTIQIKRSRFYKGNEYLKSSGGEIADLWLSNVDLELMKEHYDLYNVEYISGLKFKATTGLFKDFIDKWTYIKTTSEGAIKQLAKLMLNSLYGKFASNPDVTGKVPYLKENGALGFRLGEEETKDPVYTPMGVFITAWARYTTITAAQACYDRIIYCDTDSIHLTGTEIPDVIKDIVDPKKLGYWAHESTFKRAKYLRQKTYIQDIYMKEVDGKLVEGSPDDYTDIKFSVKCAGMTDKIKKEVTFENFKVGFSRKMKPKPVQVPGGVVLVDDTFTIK
Experiment: co-sedimentation; glycerol gradient sedimentation of DNA polymerase with TP N-terminal mutants (Supplementary Figure S2)
Conditions: both partners purified

B1: ϕ29 TP mutant K32A/K33A/K34A (natural protein, bacteriophage ϕ29, UniProt P03681 1-266, looked up)
chain: MARSPRIRIKDNDKAEYARLVKNTKAKIARTAAAYGVDLTAEIDIPDLDSFETRAQFNKWKEQASSFTNRANMRYQFEKNAYGVVASKAKIAEIERNTKEVQRLVDEKIKAMKDKEYYAGGKPQGTIEQRIAMTSPAHVTGINRPHDFDFSKVRSYSRLRTLEESMEMRTDPQYYEKKMIQLQLNFIKSVEGSFNSFDAADELIEELKKIPPDDFYELFLRISEISFEEFDSEGNTVENVEGNVYKILSYLEQYRRGDFDLSLKGF
notes: terminal protein (TP) of bacteriophage ϕ29 with K32A, K33A and K34A
binding result: binds
